The values below are quoted from earlier work in publication PMC6173998.

What is called Ki is a dissociation constant, usually derived from enzyme kinetics or from competition with a known ligand.

One series has as its target Aprotinin (Bos taurus) (UniProt P00974).
Series [1] has as its target Placental bikunin (Homo sapiens) (UniProt O43291).
The target of series [2] is Corn Hageman factor inhibitor (Zea mays) (UniProt P01088).
Series [3] concerns the target Protease nexin-2 (Homo sapiens) (UniProt P05067).
For series [4], the target named is KD APPH Kunitz domain (Homo sapiens) (UniProt Q06481).
Sequence of KD APPH Kunitz domain (Homo sapiens) (Q06481 306-364): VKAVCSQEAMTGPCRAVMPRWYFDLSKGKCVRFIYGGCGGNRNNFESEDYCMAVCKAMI
Series [5] concerns the target Tissue factor pathway inhibitor-2 (KD1-WT) KD1 (Homo sapiens) (UniProt P48307).
The target of series [6] is KD APPH Kunitz domain (Homo sapiens) (UniProt Q06481). This is another data set of the same source.
Series [7] shares this target. The source holds these as a separate data set.
Series [8] has the same target. This is another data set of the same source.
For series [9], the target named is FXIa (Homo sapiens) (UniProt P03951).
For series [10] the target is unchanged. This is another data set of the same source.
Series [11] shares this target. This is another data set of the same source.
The target is the same in series [12]. This is another data set of the same source.

Read-outs that look alike come from different tables or passages of the source.

Sequence of protease nexin-2 (P05067 18-687): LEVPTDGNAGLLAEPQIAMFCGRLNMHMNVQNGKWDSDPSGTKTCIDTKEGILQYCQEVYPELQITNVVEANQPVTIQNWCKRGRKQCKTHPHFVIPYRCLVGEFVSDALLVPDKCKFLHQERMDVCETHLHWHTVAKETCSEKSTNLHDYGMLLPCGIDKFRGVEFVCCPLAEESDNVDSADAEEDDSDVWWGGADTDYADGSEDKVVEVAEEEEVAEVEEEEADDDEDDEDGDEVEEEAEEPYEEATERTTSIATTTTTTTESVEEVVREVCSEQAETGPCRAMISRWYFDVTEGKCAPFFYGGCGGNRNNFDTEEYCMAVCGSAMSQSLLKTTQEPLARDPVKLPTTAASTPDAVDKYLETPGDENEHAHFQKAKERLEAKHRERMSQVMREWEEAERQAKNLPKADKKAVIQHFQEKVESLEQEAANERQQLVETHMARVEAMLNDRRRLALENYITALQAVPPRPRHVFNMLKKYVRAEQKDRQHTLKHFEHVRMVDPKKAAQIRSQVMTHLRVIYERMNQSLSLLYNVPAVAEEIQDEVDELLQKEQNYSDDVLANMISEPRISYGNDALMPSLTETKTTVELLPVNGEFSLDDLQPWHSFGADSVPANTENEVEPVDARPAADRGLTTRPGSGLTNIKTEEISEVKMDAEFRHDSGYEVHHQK
Sequence of Protease nexin-2 (Homo sapiens) (P05067 18-687): as above
Sequence of Corn Hageman factor inhibitor (Zea mays) (P01088 29-138): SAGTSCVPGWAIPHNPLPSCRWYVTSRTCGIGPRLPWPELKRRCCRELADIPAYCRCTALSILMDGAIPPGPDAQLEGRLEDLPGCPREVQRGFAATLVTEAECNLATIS
Sequence of corn Hageman factor inhibitor (P01088 29-138): as above
Sequence of Plasmin (P00747 581-810): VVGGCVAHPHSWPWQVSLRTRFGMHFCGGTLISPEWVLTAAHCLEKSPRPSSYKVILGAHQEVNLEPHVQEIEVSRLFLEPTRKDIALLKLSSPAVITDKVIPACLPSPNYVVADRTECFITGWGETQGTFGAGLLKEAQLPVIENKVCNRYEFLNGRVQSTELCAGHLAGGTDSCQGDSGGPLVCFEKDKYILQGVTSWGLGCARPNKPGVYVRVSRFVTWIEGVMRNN
Sequence of Plasma kallikrein (P03952 391-638): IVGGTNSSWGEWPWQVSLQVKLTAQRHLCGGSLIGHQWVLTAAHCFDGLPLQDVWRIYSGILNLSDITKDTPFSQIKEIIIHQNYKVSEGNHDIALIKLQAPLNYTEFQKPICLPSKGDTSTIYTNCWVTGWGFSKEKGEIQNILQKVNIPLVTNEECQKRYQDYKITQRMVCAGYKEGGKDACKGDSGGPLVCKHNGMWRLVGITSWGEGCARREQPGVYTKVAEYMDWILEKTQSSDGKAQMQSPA
Sequence of Placental bikunin (Homo sapiens) (O43291 28-197): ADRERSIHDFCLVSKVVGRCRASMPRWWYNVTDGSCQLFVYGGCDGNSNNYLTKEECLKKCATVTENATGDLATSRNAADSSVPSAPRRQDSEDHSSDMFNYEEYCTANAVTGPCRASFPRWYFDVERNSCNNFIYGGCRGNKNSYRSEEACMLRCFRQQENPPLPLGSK
Sequence of placental bikunin (O43291 28-197): as above
Sequence of Tissue factor pathway inhibitor-2 (KD1-WT) KD1 (Homo sapiens) (P48307 36-86): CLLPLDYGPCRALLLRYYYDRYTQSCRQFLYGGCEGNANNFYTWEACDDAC
Sequence of TFPI-2 (KD1-WT) KD1 (P48307 36-86): as above

Factor XIa (from UniProt P03951): the Ki with Aprotinin (Bos taurus) is 288 nM; in [1], 6 nM; in series [2], 5400 nM; in series [3], 0.4 nM; in series [4], 14 nM; in series [5] it was 15 nM.

On to “Glandular kallikrein (from UniProt P06870)”, for which, in [6], the Ki was 8.8 nM. Consider Plasma kallikrein (from UniProt P03952), for which, in [7], the Ki was 86 nM. Consider Plasmin (from UniProt P00747), for which the Ki in series [8] is 81 nM.

For “TFPI-2 (KD1-WT) KD1 (from UniProt P48307)”, in the series with FXIa (Homo sapiens) [9], the Ki was 15 nM. As to “corn Hageman factor inhibitor (from UniProt P01088)”, the inhibition constant Ki in the series with FXIa (Homo sapiens) [10] was 5400 nM. As for placental bikunin (from UniProt O43291), the Ki with FXIa (Homo sapiens) [11] was 6 nM. protease nexin-2 (from UniProt P05067): the inhibitory constant (Ki) with FXIa (Homo sapiens) [12] is 0.4 nM.
